Earlier results as cited in article PMC10018202.

Assays:
[1] = molecular target: Cys283 (UniProt position 283, GYILTCPSNLG)
[2] = molecular target: Cys34 (UniProt position 58, QYLQQCPFEDH); assay: chemical modification (thiol-disulfide exchange with 2,2'-dithiodipyridine, per the title of the cited reference); the article calls it 'spectroscopic measurements'; settings: not stated (the article notes the pKa changes by 1.5 pH units depending on the ionic strength of the buffer)

Substance | pKa [1] | pKa [2]
Creatine kinase (the quoted measurement is most likely on human muscle-type CK; the article's docking target is brain-type CK) (Homo sapiens) | around 5.7 and ∼5.6 | 
Serum albumin (HSA) (Homo sapiens) |  | around 7
